B1: VEGF-A121: VEGF isoform that can only bind to the Flk-1 receptor (protein)
chain: APMAEGGGQNHHEVVKFMDVYQRSYCHPIETLVDIFQEYPDEIEYIFKPSCVPLMRCGGCCNDEGLECVPTEESNITMQIMRIKPHQGQHIGEMSFLQHNKCECRPKKDRARQEKCDKPRR
B2: VEGF-A165: VEGF isoform that can bind to flk-1, flt-1 and neuropilin-1 (protein)
chain: APMAEGGGQNHHEVVKFMDVYQRSYCHPIETLVDIFQEYPDEIEYIFKPSCVPLMRCGGCCNDEGLECVPTEESNITMQIMRIKPHQGQHIGEMSFLQHNKCECRPKKDRARQENPCGPCSERRKHLFVQDPQTCKCSCKNTDSRCKARQLELNERTCRCDKPRR
B3: BDNF: Human recombinant BDNF (brain derived neurotrophic factor), used as a positive control (protein, UniProt P23560 19-247, looked up)
Neurotrophic factor BDNF …: APMKEANIRGQGGLAYPGVRTHGTLESVNGPKAGSRGLTSLADTFEHVIEELLDEDQKVRPNEENNKDADLYTSRVMLSSQVPLEPPLLFLLEEYKNYLDAANMSMRVRRHSDPARRGELSVCDSISEWVTAADKKTAVDMSGGTVTVLEKVPVSKGQLKQYFYETKCNPMGYTKEGCRGIDKRHWNSQCRTTQSYVRALTMDSKKRIGWRFIRIDTSCVCTLTIKRGR

Columns and labels:
[1] = test system: rat neural stem cells from the adult lateral ventricle wall; experiment: Expansion of rat neural stem cell cultures, total cell counts at 7 days; format: cell-based; conditions: different concentrations, 7 days; FIG. 24, FIG. 25
Method: Neural stem cells were prepared according to the attached protocol. Cells were grown in serum-free medium, subcloned and used between passage 6 and 10. If not otherwise mentioned the experiments consisted of triplets for analysis and were independently repeated at least 3 times.
Basal Medium: Neurobasal medium (NB, Gibco BRL) & B27 supplement (Gibco BRL).
Growth Medium: NB, B27 supplement+20 ng/ml of FGF-2 (R&D Systems)+20 ng/ml EGF (R&D Systems)+2 μg/ml heparin (Sigma, Germany).
Cells were plated in Growth medium at 10.000 cells/ml and after 2 days switched to the experimental condition. Cells were kept under the experimental condition for 7 days.
Adult female Fischer-344 rats (3-4 months; Charles River, Germany) were killed via cervical dislocation, the brains of each rat were removed and stored at 4° C. in DPBS (PAN, Germany) with 4.5 g/L glucose (Merck, Germany) (DPBS/glu). Overlying meninges and blood vessels were removed. Ependymal zone including subependymal/subventricular zone form the lateral wall of the lateral ventricle were aseptically removed. […] Live cells were counted by trypan blue exclusion assay in a hemocytometer. […]
The culture medium containing floating neurospheres was collected in a 15 ml centrifuge tube and centrifuged at 800 rpm. […] An aliquot was counted by trypan blue exclusion assay in a hemocytometer to determine the amount of live and dead cells. […]

Healthy Rats = experiment: ICV infusion in healthy rats, BrdU / NeuN labelling; format: in vivo, rat
Method: Male rats (12 hours light/dark regime; feeding and drinking ad libitum; 5 animals in standard cage) were infused (Alzet minipumps) in the left lateral ventricle with human recombinant PDGF-BB for 7 days at a daily dose of 36 ng/day (8 animals/group). Human recombinant BDNF (brain derived neurotrophic factor) was used as a positive control (Pencea V et al., J. Neurosci Sep. 1 (2001), 21(17):6706-17). Bromodeoxyuridine (BrdU) was also included in the infusion vehicle (artificial cerebrospinal fluid) to enable measurement of proliferation by quantitation of BrdU incorporation in the DNA. Animals were sacrificed at 7 (proliferation) or 28 days (neurogenesis) after start of treatment and brains were dissected and prepared for sectioning and immunohistochemistry (Pencea V et al., J. Neurosci Sep. 1 (2001), 21(17):6706-17).
Proliferation was measured by BrdU incorporation and diaminobenzidine (DAB) staining of HRP conjugated secondary antibodies (FIG. 7). Cells were counted in a phase contrast microscope. Neural phenotype was assessed by staining for neuronal marker NeuN by immunocytochemistry using a fluorescence readout. The secondary antibodies were labeled with FITC or Alexa Fluor568. In double staining analyses designed to measure neurogenesis, BrdU and NeuN were quantitated by fluorescence (above) and counting of cells was done in a confocal microscope. For further experimental details, see Pencea V et al., J. Neurosci Sep. 1 (2001), 21(17):6706-17. A number of brain regions were analysed.

6-OHDA Lesioned Rats = experiment: i.c.v. infusion in 6-OHDA lesioned rats, BrdU / NeuN labelling; format: in vivo, rat; conditions: for numbers of BrdU labelled cells in the denervated striatum: compared to PBS infusion
Method: Animal handling and surgical procedures were carried out according to the ethical and regulatory permits set forth by Jordbruksverket and Lund University. Adult female Sprague-Dawley rats (B&K Universal AB) rats weighing 220-250 g, were housed in pairs with a 12 h light-dark cycle with free access to food and water. To lesion the substantia nigra, rats were fixed into a stereotaxic frame and 6-OHDA ([…] in 0.02% ascorbate saline, Sigma) was injected at a rate of 1 μl/min in 2 deposits of 2 and 2.5 μl into the right ascending mesostriatal forebrain bundle at the following coordinates: 4.4 mm caudal to bregma, 1.2 mm lateral to midline, 7.8 mm below dura; 4.0 mm caudal, 0.8 mm lateral, 8.0 mm below dura, respectively (Paxinos and Watson, 1998). Three weeks after 6-OHDA injections, the completeness of the lesion was assessed with the amphetamine-induced rotation test. D-methylamphetamine (2.5 mg, i.p.) was injected 5 min prior to placing the rat in an automated rotormeter bowl that measured the number of rotations over 90 min.
Before implantation, an Alzet Model 2002 osmotic minipump (200 μl; flow rate: 0.5 μl/h, 12 μl/day) was prefilled with 200 μl of compound solution (see below) and placed in a NaCl (0.9%) solution warmed in water bath (37° C.) 36 hrs before implantation. Rats were anesthetized with halothane in a mixture of nitrous oxide/oxygen (70:30) and maintained with 2-3% halothane. For implantation, rats were placed in a stereotaxic frame and the cannula of the Alzet Brain Infusion kit II was placed into the right lateral ventricle (coordinates: AP=−0.3 mm posterior bregma, L=1.5 mm lateral to satura sagittalis, 4.5 mm the dura; Paxinos and Watson, 1998), and secured to the skull with screws and dental cement. The minipump was then placed subcutaneously in the mid-scapular region. The scalp was treated with lidocaine gel before suturing. Twelve days after insertion, the rats were briefly anaesthetized with halothane in order to remove the pump. Removed pumps had the remaining solution volume and weight recorded.
The effects of infused PDGF-BB and BDNF following 6-OHDA lesions were investigated at 2 different time points: at 12 days or 5 weeks after minipump insertion. Rats receiving human PDGF-BB (order # 220-BB-050; 50 μg, R&D Systems) each had 36 ng/d of PDGF dissolved in 0.1 M PBS (3 μg/ml). Rats receiving human recombinant BDNF (order # 248-BD-025; 25 μg, R&D Systems) each had 12 ng/d of BDNF dissolved in 0.1 M PBS (1 μg/ml). BrdU was co-administered with the compound solution in the minipumps by dissolving it into the 0.1 M PBS medium. Control rats received only BrdU/PBS infusions.
Brain tissue was obtained by anesthetizing the rat and transcardially perfusing with 0.9% saline followed by 4% paraformaldehyde (PFA). Brains were stored PFA for 2 hours, then transferred to 20% sucrose PBS and sectioned coronally on a sledge microtome at 30 μm thickness. Free-floating sections were stored in Walter's antifreeze solution at 4° C. until staining.
Following blocking, incubation of monoclonal rat anti-BrdU antibody (Harlan Sera Lab, UK) in 2% blocking solution occurred at a dilution of 1:100 at 4° C. for 36 hrs. The sections were then incubated with biotin-horse-[…] antibody (1:200) (Vector, CA) in 2% blocking solution for 2 hr and visualized with DAB-NiCl Vectastain Elite kit. The procedure for doubling labeling of BrdU with NeuN or TH was similar, except that a monoclonal rat anti-BrdU antibody (1:100; Sigma, Sweden) was incubated either with a monoclonal mouse anti-NeuN antibody (1:100; Chemicon, USA) or with a monoclonal anti-TH antibody (1:1000; Pelfreeze) in the appropriate 2% blocking solution in the dark for 36 to 48 hrs. For immunofluorescent visualization, sections were incubation in secondary antibodies: Cy3-conjugated donkey anti-rat (1:200; Jackson ImmunoResearch, PA) for BrdU; a biotinylated horse anti-mouse antibody (1:200; BA2001, Vector, CA) for NeuN; and a FITC-conjugated goat anti-rat (1:200;) for TH. […]

Molecule	stimulation of proliferation of neural stem cell cultures [1]	Cell count (BrdU, proliferation) along the lateral ventricle wall (Healthy Rats; 7-day group, ICV infusion 7 days, 36 ng/day, mean of two sections, mean +/- sem)	number of proliferating cells in the subventricular zone (Healthy Rats; 28-day group)	neurogenesis in the striatum (Healthy Rats; 28-day group, in comparison to vehicle treated animals)	BrdU positive cells in the dentate gyrus, the CA1 and the alveus (Healthy Rats; 28-day group, in comparison to vehicle-treated animals)	BrdU positive cells in the striatum (Healthy Rats; 28-day group, cells counted in 300 × 300 μm squares)	absolute number of BrdU/NeuN double labelled cells in the striatum (6-OHDA Lesioned Rats; 5 weeks, FIG. 15)	numbers of BrdU labelled cells in the denervated striatum (6-OHDA Lesioned Rats; 12 days after infusion, PDGF 36 ng/d, BDNF 12 ng/d)	numbers of BrdU labelled cells in the lesioned substantia nigra (6-OHDA Lesioned Rats; 12 days after infusion, compared to PBS treatment)	BrdU cells in the striatum co-labelled with NeuN (proportion of newly generated neurons) (6-OHDA Lesioned Rats; Week 5, no statistically significant differences)	numbers of BrdU labelled cells in the denervated striatum (6-OHDA Lesioned Rats; at 5 weeks)
B1	significant stimulation										
B2	significant stimulation										
B3		177 +/−15	slight effect	significantly increase neurogenesis	no significant effect	39.8 ± 7.3 (p < 0.01 to vehicle, ANOVA)	significantly more neurons	significantly elevated	significantly elevated	16.6%	significant increases

— patent US7981863B2, “Treatment of Parkinson's disease with PDGF” (Neuronova AB, priority 2001, dated 2011)
